Data from patent publication US20200247894A1 (Regeneron, published 2020).

T1: human IL-2Rγ endogenously expressed on NK-92 and Jurkat cells (human, UniProt P31785 23-369)
T1 construct: whole, on cells; on cells it stands with the other receptor subunits of the cell line; also called IL-2Rg; CD132
T1 sequence (looked up): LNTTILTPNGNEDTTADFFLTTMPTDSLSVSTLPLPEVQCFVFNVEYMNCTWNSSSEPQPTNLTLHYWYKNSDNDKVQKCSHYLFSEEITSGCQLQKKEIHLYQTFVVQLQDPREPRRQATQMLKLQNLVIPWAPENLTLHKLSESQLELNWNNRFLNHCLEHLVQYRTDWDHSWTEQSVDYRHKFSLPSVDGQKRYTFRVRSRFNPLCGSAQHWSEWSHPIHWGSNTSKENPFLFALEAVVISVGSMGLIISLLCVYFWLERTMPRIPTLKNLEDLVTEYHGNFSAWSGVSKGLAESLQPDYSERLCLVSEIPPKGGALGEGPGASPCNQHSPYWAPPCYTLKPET

T2: Mouse IL2Rγ extracellular domain expressed with a C-terminal myc-myc-hexahistidine tag (mouse)
T2 construct: whole entry is the tagged construct; also called mIL-2Rg-MMH
T2 chain: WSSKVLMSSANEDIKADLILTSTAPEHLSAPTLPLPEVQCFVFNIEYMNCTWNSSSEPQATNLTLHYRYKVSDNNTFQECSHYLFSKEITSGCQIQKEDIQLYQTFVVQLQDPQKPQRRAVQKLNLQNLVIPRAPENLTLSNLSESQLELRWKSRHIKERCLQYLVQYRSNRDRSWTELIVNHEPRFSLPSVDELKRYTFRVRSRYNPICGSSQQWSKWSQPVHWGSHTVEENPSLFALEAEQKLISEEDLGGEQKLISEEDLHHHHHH

T3: Rat IL2Rγ extracellular domain expressed with a C-terminal myc-myc-hexahistidine tag (rat)
T3 construct: whole entry is the tagged construct; also called rIL-2Rg-MMH; rat IL-2Rg-MMH
T3 chain: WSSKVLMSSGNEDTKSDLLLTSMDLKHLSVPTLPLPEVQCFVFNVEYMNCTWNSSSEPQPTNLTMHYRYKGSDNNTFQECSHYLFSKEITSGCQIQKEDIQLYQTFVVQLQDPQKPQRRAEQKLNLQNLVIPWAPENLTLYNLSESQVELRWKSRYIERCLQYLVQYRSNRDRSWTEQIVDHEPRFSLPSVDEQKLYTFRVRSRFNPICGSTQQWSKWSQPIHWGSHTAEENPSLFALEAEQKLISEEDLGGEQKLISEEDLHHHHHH

T4: Macaca fascicularis IL2Rγ extracellular domain expressed with a C-terminal myc-myc-hexahistidine tag (Macaca fascicularis)
T4 construct: whole entry is the tagged construct; also called mfIL-2Rg-MMH
T4 chain: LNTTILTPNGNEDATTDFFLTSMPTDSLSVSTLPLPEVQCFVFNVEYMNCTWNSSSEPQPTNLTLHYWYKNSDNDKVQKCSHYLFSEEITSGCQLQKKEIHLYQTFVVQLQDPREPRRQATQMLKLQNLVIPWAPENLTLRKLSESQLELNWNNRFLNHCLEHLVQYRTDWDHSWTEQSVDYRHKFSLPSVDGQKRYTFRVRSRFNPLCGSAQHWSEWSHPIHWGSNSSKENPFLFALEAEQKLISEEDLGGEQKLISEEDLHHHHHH


Experiments:
[1] = target: T1, human IL-2Rγ endogenously expressed on …; experiment: flow cytometry, 10 ug/ml antibody, NK-92 cells (endogenous human IL-2Rg)
Experimental: For flow cytometry analyses, the cells were pre-incubated with mouse IgG at 100 μg/ml for 15 minutes at room temperature (RT) to block the binding of the antibodies to Fc receptors. […] Cells were washed, fixed using BD CytoFix™ (BD biosciences, #554655) and analyzed on an IQue® (Intellicyt®) Flow Cytometer or Accuri Flow cytometer (BD). […] The results were analyzed using ForeCyt® (IntelliCyt®) software to determine the geometric means of fluorescence (MFI) for viable cells. Binding ratios were calculated by normalizing the MFI of the test sample by the MFI of the unstained sample.

[2] = target: T2, Mouse IL2Rγ extracellular domain …; experiment: SPR Biacore 4000, anti-hFc-captured mAb, 25 C
Experimental: (§1) Equilibrium dissociation constants (KD values) for IL-2Rγ binding to purified anti-IL2Rγ monoclonal antibodies were determined using a Biacore 4000 instrument equipped with a real-time surface plasmon resonance biosensor. All binding studies were performed in 10 mM HEPES, 150 mM NaCl, 3 mM EDTA, and 0.05% v/v Surfactant Tween-20, pH 7.4 (HBS-ET) running buffer at 25° C. and 37° C. The Biacore sensor surface was first derivatized by amine coupling with a monoclonal mouse anti-human Fc antibody (GE, # BR-1008-39) to capture anti-IL2Rγ monoclonal antibodies.
(§2) The dissociation of monoclonal antibody bound IL2Rγ reagents were monitored for 8-10 minutes in HBS-ET running buffer. Kinetic association (kₐ) and dissociation (kd) rate constants were determined by fitting the real-time sensorgrams to a 1:1 binding model using Scrubber 2.0c curve fitting software. Binding dissociation equilibrium constants (KD) and dissociative half-lives (t_{1/2}) were calculated from the kinetic rate constants as: […]

[3] = target: T3, Rat IL2Rγ extracellular domain …; experiment: SPR Biacore 4000, anti-hFc-captured mAb, 25 C
Experimental: as §1, §2

[4] = target: T4, Macaca fascicularis IL2Rγ extracellular …; experiment: SPR Biacore 4000, anti-hFc-captured mAb, 37 C
Experimental: as §1, §2

[5] = target: T2, Mouse IL2Rγ extracellular domain …; experiment: SPR Biacore 4000, anti-hFc-captured mAb, 37 C
Experimental: as §1, §2

[6] = target: T3, Rat IL2Rγ extracellular domain …; experiment: SPR Biacore 4000, anti-hFc-captured mAb, 37 C
Experimental: as §1, §2

Binder	Binding Ratio (Sample over unstained MFIs) [1]	Raw MFI [1]	100 nM Ag Bound [2]	binding result [2]	100 nM Ag Bound [3]	binding result [3]	100 nM Ag Bound [4]	Kd [4]	koff [4]	kon [4]	t1/2 [4]	100 nM Ag Bound [5]	100 nM Ag Bound [6]
H4H12859P (antibody, human IgG4 S228P, kappa, V domains shown, fully human anti-IL2Rgamma mAb, human IgG4 Fc) VH: QVQLVQSGAEVKKPGASVRVSCKASGYTFTDYDIHWVRQAPGHGLEWMGWINPNSGGTNYAQKFQGRVTMTRDTSISTVYMDLSRLRSDDTAVYYCARADYSSSYYYYGMDVWGQGTTVTVSS VL: not shown	–	–	2 RU	no binding (tested: 100 nM)	2 RU	no binding (tested: 100 nM)	10 RU	320 nM	0.0201 s⁻¹	62800 M⁻¹ s⁻¹	36 s	0 RU	1 RU
H4H13541P (antibody, human IgG4 S228P, kappa, V domains shown, fully human anti-IL2Rg antibody, human IgG4) VH: EVQLVESGGGVVRPGGSLRLSCAASGFIFDDYDMSWVRQPPGRGLEWVSGIDWFGGTRGYADSMKGRFTISRDNAKNSLYLQMNSLRVEDTAFYYCARGGAIVGAVTPFDYWGQGTLVTVSS VL: DIQMTQSPSSLSASVGNRVTLSCRASQSINTYLSWYQQRPGKAPKLLIYAASSLQSGVPSRFSGSGAGTDFTLTISSLQPEDFATYYCQQSYSAPLTFGGGTKVEIKR	37	7050 MFI	–	–	–	–	–	–	–	–	–	–	–
H4H12927P2 (antibody, human IgG4 S228P, kappa, V domains shown, fully human anti-IL2Rgamma mAb, human IgG4 Fc) VH: EVQLVESGGGVVRPGGSLRLSCATSGFTFDDYGMSWVRQVPGKGLEWVSSVNRNGGTTDYADSVKGRFTISRDNAKRSLFLQMNSLRAEDTALYHCATGELFFDYWGQGTLVTVSS VL: not shown	–	–	1 RU	no binding (tested: 100 nM)	2 RU	no binding (tested: 100 nM)	–	–	–	–	–	1 RU	1 RU

Now from value to binder:

Binding Ratio (Sample over unstained MFIs) [1]	Raw MFI [1]	100 nM Ag Bound [2]	binding result [2]	100 nM Ag Bound [3]	binding result [3]	100 nM Ag Bound [4]	Kd [4]	koff [4]	kon [4]	t1/2 [4]	100 nM Ag Bound [5]	100 nM Ag Bound [6]	Binder
3	592 MFI	–	–	–	–	–	–	–	–	–	–	–	H4H13545P2 (antibody, human IgG4 S228P, kappa, V domains shown, fully human anti-IL2Rg antibody, human IgG4) VH: QVQLQQSGPGLVKPSQTLSLTCDISGDSVSSNIATWNWIRQSPSRGLEWLGRTYYRSKWYKDYAVSVKSRITINPDTSKNQFSLQVNSVTPEDTAVYYCARMTGPRYYFEYWGQGTLVTVSS VL: not shown
24	4650 MFI	–	–	–	–	–	–	–	–	–	–	–	H4H13544P2 (antibody, human IgG4 S228P, kappa, V domains shown, fully human anti-IL2Rg antibody, human IgG4) VH: QLQLQESGPGLVKPSETLSLTCTVSGGSISIKNYYWGWIRQPPGKGLEWIGSIYYSGTTYYNPSLKSRVTISVDTSKNQFSLKLSSVTAADTAVYHCARHGYSYGHGWFDPWGQGTLVTVSS VL: not shown
